# Laboratory results reported in PMC10314921, “Eltrombopag directly activates BAK and induces apoptosis” (Cell Death & Disease, 2023).
# B1: BAK lacking its transmembrane domain (BAKΔTM), wild type [human] / itself (parent)
# chain: EPALPSASEEQVAQDTEEVFRSYVFYRHQQEQEAEGVAAPADPEMVTLPLQPSSTMGQVGRQLAIIGDDINRRYDSEFQTMLQHLQPTAENAYEYFTKIATSLFESGINWGRVVALLGFGYRLALHVYQHGLTGFLGQVTRFVVDFMLHHCIARWIAQRGGWVAALNLGNG
# Variants of: B1
# Experiment: size exclusion chromatography (BAK oligomerization assay)
# Settings: with itself; with Eltro (3.4 mM in panels a, b); CHAPS buffer, 1 h at 25 °C; Superdex75; parent: 54; read off a plot
row,screen value [%],Variant
1,39,chain 1 R141E
2,42,chain 1 R141A
